Assay: yeast display, Sf9 membrane polyspecificity reagent, FACS + sequencing; frameworks hold sequencing errors
Procedure, shortened: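 Genes from sorted yeast were amplified by colony PCR, read by MiSeq 2 × 250 sequencing and filtered on CDR length. These cells carried a synthetic nanobody library in Saccharomyces cerevisiae BJ5465 and were sorted by FACS into low and high (top ~1%) gates on anti-HA and streptavidin fluorescence. Polyreactivity is labelled according to the gate of origin.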

Row | Sequence | polyreactivity (PSR sort gate)
1 | QVQLVESGGGLVQAGGSLRLSCAASGIIFSPNAMGWYRQAPGKERELVAGISSGGSTYYADSVKGRFTLSRDNAKNTVYLQMNSLKPEDTAVYYCAVRSRIFGSWYGYGYWGQGTQVTVSS | high polyreactivity
2 | QVQLVESGGGLVQAGGSLRLSCVASGRIFLTYAMGWYRQAPGKERELVAAISYSGASTYYADSVKGRFTISRDNAKNTVYLQMNSLKPEDTAVYYCATERVGTPRMNYWGQGTQVTLSS | high polyreactivity
3 | QVQLVESVGGLVQAGCSLRLSCGASGRIFPWYAMGWYRPAPGKERELVAAIRWRGGGTYYADSVKGRFTISRDNAKNTVYLQMNSLKPEDTAVYYCSARRPAKGMGYWGQGTQVTVSS | high polyreactivity
4 | QVQLVESGGGLVQAGGSLRLSCAASGSIFEYYTMGWYRQAPGKEREFVAAITFTGDSTYYADSVKGRFTISRDNAKNTVYLQMNSLKPEDTAVYYCNADSVTYDGEYDYWGQGTQVTVSS | low polyreactivity
5 | QVQLVESGGGLVQAGGSLRLSSAASGRIFRPYDMGWYRQAPGKERELVAAITQSGGITSYADSVKGRFTISRDNAMNTVYLQMNSLTPEDTAVYYCASTSRYTRSHYDWYDYWGQGTQVTVSS | low polyreactivity
6 | QVQLVESGGGLVQAGGSLRLSCAASGRTFHRYAMGWYRQAPGKERELVAAITSSGGSTNYADSVKGRFTISRDYAKNTVYLQMNSLKPEDTAVYYCATDRYRYTSHPWSRGFDYWGHGTQVTVSS | low polyreactivity
7 | QVQLVESGGGLVQAGGSLRLSCAASGRIFAGYPMGWYRQAPGKERELVATITRGGSTNYADSVKRPFTISRDNAKYTVYLQMNSLKPEDTAVYYCNADPGGRYPRRGYAHEGDYWGQGTQVTVSS | low polyreactivity
8 | QVQLVESGGGLVQAGGSLRLSCAASGFIFGYYAMGWYRQAPGKERELVAAISWSGVSTYYADSVKGRFTISSDNAKNTVDLQMNSLKPEDTAVYYCAVGYVLTGVFQARFDYWGQGTQVTVSS | high polyreactivity
9 | QVQLVESGGGLVQAGGSLRLSCAASGSTFRSNAMGWYRQAPGKERELVAAITYSGGRTYYADSVKGRFTFSRDNAKNTVYLQMNSLIPEDTAVYYCAKVGWSRRYYYWGQGTQVTVSS | high polyreactivity
10 | QVQLVESGGGLVQAGGSLRLSSAASGITYYGYAMGWYRQAPGKERELVAAISKSGGSTHYADSVKGRFTISRDNAINTVYLQMYRLKPEDTAVYYCAAAYWTRLRRMDYWGQGTQVTVSS | low polyreactivity
11 | QVQLVESGGGLVQAGGSLRLSCAASGLTFPGYVMGWYRQAPGKERELVAAITNGGRTYYADSVKGRFTISRDNAMNTVYLQMNSLKPEDTAVYYCNTARGSKDPPHYYWGQGTQVTVSS | high polyreactivity
12 | QVQLVESGGGLVQAGGSLRLSCAASGSTFVINAMGWYRPAPGKERELVARISSSGGRTDYADSVKGRFTISRDNAKNTVYLQMNSLKPEDTAVYYCAAATWLIPYTWRDPSQYNYWAQGTQVTVSS | low polyreactivity
13 | QVQLVESGGGLVQAGGSLRLSCAASGSIFVWNARGWYRQAPVKERELVAAISYTDGSTYYADFVKGRFTISRDNAKNTVYLQMNSLKPEDTAVYFCAAAITRSYTGSEYDYWGQGTEVTVSS | low polyreactivity
14 | QVQLVESGGGLVQAGGSLRLSCAASGRTFSYAMGWYRQAPGKERELVAGISWSGGRTYYADSVKGRFTISRDNAKNTVYLQMNSLKPEDTAVYYCAAGGRARTYYYWGQGTQVTVSS | high polyreactivity
15 | QVQLVESGGGLVQAGGSLRLSCAASGFTFDRNAMGWYRQAPGKERGFVAAISSSGGRTYYADSVKGRFTISRDNAKITVYLEMNSLKQEDTALYYCAADFVSRPSAYGSSYYWGQGTQVTVSS | high polyreactivity
16 | QVQLVESGGGLVQAGGSLRLSCAASGRIFDGNALGWYRKAPGKERELFAAISWTGGSTYYADSVKGRYTISRDNAKNTVYLQLNSLKPEDTAVYYCAADSGWWLDQLSWYDYWGQGTQVTVSS | low polyreactivity

Row | Sequence | polyreactivity (PSR sort gate)
17 | QDQLVESGGGLVQAGGSLRLSCAASGFIFIPNAMGWYRQAPRKERELVAAISFSDGTTYYADSVKGRFTISRDYEKNTVYLQMNSLKPEDTAVYYCAAEGYQSQYDYWGQGTQVTVSS | high polyreactivity
18 | QVQLVESGGGLVQAGGSLRLSCAASGSTSVYYAMGWYRQAPGKERELVAAITSGGRTYYADSVKGRFTISRDNAKNTVYLQMNSLKPEDTAVYYCNKGLYYFLPTKFRLDYWGQGTQVTVSS | high polyreactivity
19 | QVQLVESGGGLVQAGGSLRLSCAASGFTFGYYAMGWYRQAPGKERELVATITSSGASTYADSVKGRFTISRDNAKNTVYLQMNSLKPEDTAVYYCAADRLPSYWSWYGYDYWGQGTQVTVSS | high polyreactivity
20 | QVQLVESGGGLVQAGGSLRLSCAASGLIFVGYAMGWYRQAPGKERELVAAITSGGSTKYADSVKGRFTISRDNAKNTVYLQMNSLKAEDTAVYYCAASGWRNWWSARNYYWGQGTQVTVSS | low polyreactivity
21 | QVQLVESGGGLVQAGGSLRLSCAASGINFGYNVMGWYRQAPGKERELVAAISGSGSSTYYADSVKGRFTISRDNAKNTVYLQMNSLKPEDTAVYYCARQRYEYRTTYYYWGQGTQVTVSS | high polyreactivity
22 | QVQLVESGGGLVQAGGSLRLSCAASGGTLFTNAMGWYRQAPGKERELVAAISWRGGRTYYADSVKGRFTISRDNAKNTVYLQMNSLKPEDSAVYYCAADVSAVQGYYYWGQGTQVTVSS | low polyreactivity
23 | QVQLEESGGGLVQARVSLRLSSAASGFTLWNYAMGLYRQAPGKERELVAGINSGGRTYYADSVKGRFTISRDNAKNTVYLQMKSLKPEDTAVFYCNARGWSSFSHNSYFMDYWGQGTQVTVSS | high polyreactivity
24 | QVQLVESGGGLVQAGGSLRLSCAASGRTFYKYAMGWYIQAPGKERELVARISGRGGRTYYADSVKGRFTISRDNAKNTVYLQMNSLKPEDTEVYYCASDWVPINVKSLVVTYDYWGQGTQVTVSS | low polyreactivity
25 | QVQLVESAGGLVQAGGSLRLSCAASGRTFYPYAMGWYRQAPGKARELVAAIRSSGGTTYYADSVKGRFTISRDNAKNTVYVQMNSLKPEDTAVYYCAAFVDRQGGYYWGQGTQVTVSS | high polyreactivity
26 | QEQLVESGGGLVQAGGSLRLSCAASGSIFATYAMGWNRQAPVKERELVAAITSSDGSTNYADSVKGRFTISRDNAKNTVYLLMNSLKPEDTAVYYCAADGTVRSLGRYYHWGQGTQVTVSS | low polyreactivity
27 | QVQIVESGGGLVQARGSLLLSSAASGFTSNYYALGWYRHAPGKESELVAAITTGGSTHYADSVKGRFTFSRDNAQNTVYLQLNSLKQVDSAVYYCAAGTNRQQQRYFHNGGYYQYNYWGQGTQVTVSS | low polyreactivity
28 | QVQLVESGGGLVQAGGSLRLSCAASGFIFKSYAMGWYRPAPGKERELVAAISSGGTTNYADSVKGRFTISRDNANNTVYLQMNSLKPEDTAVYYCAAALHGHTFPFYYWGHGTQVTVSS | low polyreactivity
29 | QVQLVESGGGLVQAGGSLRLSCAASGSIFWPNAMGWYRQAPGKERELVAAIRRSGGSTYYADSVKGRFTISRDNAKNTVYLQMNSLKPEDTAVYYCAARADLHRRVRNIYYSWGQGTQVTVSS | low polyreactivity
30 | QVQLVESGGGLVQAGGSLRLSCAASGYIVITYAMGRYRQAPGKERELVAAISRRGGRTYYADSVKGRFTISRDNAKNTVYLQMNSLKPEATAVYYCAADPATSVYGGLNYWGQGTQVTVSS | high polyreactivity
31 | QVQLVESCGALVQAGGSLLLSCAASGRTFVVNDMGWYRHAPWKERELVATINVSGGSTSYEDSVKGRFTISRDNGKYTVYLQMTSLKPEDTAVYYCNVDTYVEYPHDYWGQGTQVTVSS | low polyreactivity

Reference: the nanobody polyreactivity screen of Harvey et al. (2022)
